According to US20130164214A1:

Molecular target: HLA-DR (human)
Test: cell-based or functional assay

- reduction of live mDC1 in human PBMCs after 3 days with antibody, flow cytometry: 59.2%
- reduction of live mDC2 in human PBMCs after 3 days with antibody, flow cytometry: 85%
- reduction of pDCs in human PBMCs, flow cytometry: 50%
B1: hL243γ4P (IMMU-114), humanized IgG4 anti-HLA-DR antibody (antibody, from a related filing, V domains shown)
VH: QVQLQQSGSELKKPGASVKVSCKASGFTFTNYGMNWVKQAPGQGLKWMGWINTYTREPTYADDFKGRFAFSLDTSVSTAYLQISSLKADDTAVYFCARDITAVVPTGFDYWGQGSLVTVSS
VL: DIQLTQSPSSLSASVGDRVTITCRASENIYSNLAWYRQKPGKAPKLLVFAASNLADGVPSRFSGSGSGTDYTFTISSLQPEDIATYYCQHFWTTPWAFGGGTKLQIKR
